Target: KDR-alkaline phosphatase (AP) soluble fusion protein (human) (UniProt P35968)
Experiment: BIAcore SPR, KDR immobilized

KDR-alkaline phosphatase (AP) soluble fusion protein (human), sequence (P35968 20-764): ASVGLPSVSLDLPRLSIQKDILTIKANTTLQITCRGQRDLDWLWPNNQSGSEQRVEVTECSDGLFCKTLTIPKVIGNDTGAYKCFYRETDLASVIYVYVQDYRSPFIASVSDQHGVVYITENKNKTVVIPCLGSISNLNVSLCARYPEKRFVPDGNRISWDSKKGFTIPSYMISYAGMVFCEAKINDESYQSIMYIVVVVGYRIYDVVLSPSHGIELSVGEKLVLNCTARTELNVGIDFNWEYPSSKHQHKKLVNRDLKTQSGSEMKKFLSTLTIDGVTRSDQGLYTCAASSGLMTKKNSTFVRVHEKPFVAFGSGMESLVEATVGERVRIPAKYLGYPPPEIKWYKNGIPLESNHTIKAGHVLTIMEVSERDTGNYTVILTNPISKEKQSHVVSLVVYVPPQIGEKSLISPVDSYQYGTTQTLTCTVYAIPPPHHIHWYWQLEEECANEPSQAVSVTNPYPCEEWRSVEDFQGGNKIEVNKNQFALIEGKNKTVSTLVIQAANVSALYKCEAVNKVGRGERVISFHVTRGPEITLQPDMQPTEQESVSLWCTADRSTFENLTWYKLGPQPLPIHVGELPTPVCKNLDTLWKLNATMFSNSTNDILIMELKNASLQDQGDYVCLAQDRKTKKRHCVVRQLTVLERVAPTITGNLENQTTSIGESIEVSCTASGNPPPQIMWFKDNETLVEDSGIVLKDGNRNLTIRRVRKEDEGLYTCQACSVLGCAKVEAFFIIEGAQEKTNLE

B1: p1C11 scFv (scFv, from another filing)
scFv: QVKLQQSGAELVGSGASVKLSCTTSGFNIKDFYMHWVKQRPEQGLEWIGWIDPENGDSDYAPKFQGKATMTADSSSNTAYLQLSSLTSEDTAVYYCNAYYGDYEGYWGQGTTVTVSSGGGGSGGGGSGGGGSDIELTQSPAIMSASPGEKVTITCSASSSVSYMHWFQQKPGTSPKLWIYSTSNLASGVPARFSGSGSGTSYSLTISRMEAEDAATYYCQQRSSYPFTFGSGTKLEIK
**Q.** Which results are given for B1?
**A.** Kd: 1.4 nM; koff: 0.0001 s⁻¹; kon: 77000 M⁻¹ s⁻¹
